In the supplement of paper PMC9170038:

Tested on: MS2 coat protein
Assay: apparent KD of MS2 coat protein; designed switch direction (-1 OFF switch, 1 ON switch): -1; higher = weaker reporter binding
How it was run: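 Stalled E. coli RNA polymerase transcribed designed RNA switches on Illumina chips, which were then titrated with SNAP-549-labelled MS2 coat protein, doubling from 0.7 or 1.5 nM to 3 µM. Steps lasted from 0.8–1.5 h at the lowest concentration to 10–20 min at the highest. The apparent KD is each design's median over clusters of curve-fitted normalised fluorescence.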

[1] = Eterna round: R95, input ligand: FMN 200 uM
[2] = Eterna round: R95, input ligand: microRNA oligo, concentration not stated
[3] = Eterna round: R95, input ligand: none
[4] = input ligand: microRNA oligo, concentration not stated

Sequence | apparent KD of MS2 coat protein [2] | apparent KD of MS2 coat protein (input ligand: FMN 200 uM) | apparent KD of MS2 coat protein (input ligand: none) | further results
AGGAAUGAAGGAUAUACAUGAGGAUCACCCAUGUAAAAGGAAAGAGGUGAUGGAGAUAGUAGAAGGUCAAGAAG [JR_Exclusion3_Sub004] (puzzle: Exclusion 3) | 135 nM | – | – | apparent KD of MS2 coat protein [1]: 94.2 nM; apparent KD of MS2 coat protein [3]: 204 nM
GACAUGUGAGGAUAUUGCAUAUAGUUAUAAGUUCAGGGCGGCAAGAAGGCACAUGAGGAUCACCCAUGUACCUU [Eternabot (L2) Solution 81] (Eterna round: R97, puzzle: Exclusion 4) | – | 18.7 nM | 15.3 nM | –
ACAACUGUUCCCAAGCUUUACAUGAGGAUCACCCAUGUUCGUCAAGAUUUGUACCAUCUAACGUAUGGCUCAAGUAC [Eternabot (L1) Solution 48] (Eterna round: R97, puzzle: Sensor, turn-off variant 1) | – | 23 nM | 24.6 nM | –
AAUAAUUGUGACUUGGGUGACAUGAGGAUCACCCAUGUCACAAGCUUGUUGCUCGCCUUGUAAUUAACCCAUGUCAC [LRO Sensor-off var1-27 mod of Stov1-13-A1 by Brourd] (Eterna round: R97, puzzle: Sensor, turn-off variant 1) | – | 22.2 nM | 20.8 nM | –
AGACAGUCAGGAUAUACAUGAGGAUCACCCAUGUUGAGAUGUGAAAGGGCAGGAAUAGGUAGAAGGGACGAGAG [JR_Exclu3_Sub038] (puzzle: Exclusion 3) | 30.6 nM | – | – | –
CGACUAAACGUGAGGAUAUGCGGUGCCAGAACAUUGCAGAAGGCACAUGAGGAUCACCCAUGUGUGGGAGAAGA [Eternabot (L1) Solution 43] (Eterna round: R97, puzzle: Brourd's mod of Exclusion 4) | – | 241 nM | 103 nM | –
AAAAGGUCAGGAUAUCGGCGCGGUUGGGAGGCAGGUCCGCGCGAGAAGGGACAUGAGGAUCACCCAUGUUAAAA [Excls4-III] (puzzle: Exclusion 4) | 20.7 nM | – | – | –
GAAAAGGUAGAGGAUAUUUCAGAUCAAAGCUGCAAAGAAGGCUGCACAUGAGGAUCACCCAUGUGGUCAAUAAA [Mod of Quesina 12 - Jieux - Exclusion 6] (Eterna round: R97, puzzle: Exclusion 6) | – | 59.7 nM | 20.9 nM | –
GCAGAUGAAGUGAGGAUAUGCUCUACCUCGGUAGAGCAGAAGGCACAUGAGGAUCACCCAUGUGAUUCAUCUGC [Omei Ex4B B6] (Eterna round: R97, puzzle: Brourd's mod of Exclusion 4) | – | 35.4 nM | 17 nM | –
UACUGACAUGAGGAUCACCCAUGUGAGGAUAUUCUCCUGCCAAAUUAAUGGUGGGUGUGAAGAAGGCACAAGGA [EX1 C.12] (Eterna round: R97, puzzle: Exclusion 1) | – | 98 nM | 29.1 nM | –
CUUGUGUUAGGAUAUGUUAAGCCACCAACCAGUGGAUCAGGACAGAAGGAACAUGAGGAUCACCCAUGUAAAAG [Inedar] (Eterna round: R97, puzzle: Exclusion 4) | – | 25.3 nM | 67.4 nM | –
AAACGGCAGGGAGGAUAUGCUUACCUGGGUCGUCUUCAAACAUGAGGAUCACCCAUGUAGUCGACGCAGAAGGCCCUCAAAGCC [JL ViennaUCT Ontiis mod] (Eterna round: R96, puzzle: Exclusion NG 2) | – | 144 nM | 18.6 nM | apparent KD of MS2 coat protein [4]: 18 nM
AAAUUAGCAAGUAGAUCCGACAUGAGGAUCACCCAUGUAAUCUAAUAUUACGCUGCACGAAAGUGCGCUCGUCUUAG [Sensor-V1 #14] (Eterna round: R97, puzzle: Sensor, turn-off variant 1) | – | 416 nM | 470 nM | –
AAUAACUGAGGAUAUACUAUAAUAUGAAUAAAAUAAAUAAAACAUGAGGAUCACCCAUGUAGAAGGCAGAAUAA [JMF's Not so obvious solution 9] (puzzle: Exclusion 2) | 17.8 nM | – | – | apparent KD of MS2 coat protein [1]: 23.2 nM; apparent KD of MS2 coat protein [3]: 24.1 nM
AAUUCACAUGAGGAUCACCCAUGUCAGGAUAUGGUGACGCGGGUUUCGGUGCGUGUUGCCAGAAGGGACGGCUG (puzzle: Exclusion 1) | 92.4 nM | – | – | –
CCAGCGUAUGUUAGGAUAUGCUGGUCCUUGGAUCAGCAGAAGGAACAUGAGGAUCACCCAUGUAGAAUCGUUGG [Mod of JL 15 - Jieux - Brourd's mod of Exclusion 4] (Eterna round: R97, puzzle: Brourd's mod of Exclusion 4) | – | 35 nM | 20.3 nM | –
CUUCGGCGAGGAUAUUACGAGAACGACAUGAGGAUCACCCAUGUGAUCGAGGUUGCCUCGUAAGAAGGCGCAUAUA [Reederedle] (Eterna round: R97, puzzle: Exclusion 5) | – | 1050 nM | 244 nM | –
GAGGCUAAAGGAUAUACAUGAGGAUCACCCAUGUGGAGGAAGGUUAGAUGAGGAGAAGGUAGAAGGUUAGGCGG [JR_Exclu3_Sub094] (puzzle: Exclusion 3) | 31.1 nM | – | – | –
UAUUAGUAAGGAUAUGAGUCGUAGAACAAUAGUACUACGUCUCAGAAGGUACAUGAGGAUCACCCAUGUUCAUU [Mod of Fisker 2 - Jieux - Exclusion 4] (Eterna round: R97, puzzle: Exclusion 4) | – | 27.4 nM | 19 nM | –
AGUAAUUCAAGAGGAUAUCACAUGAGGAUCACCCAUGUAUAGCGCGCUACGCUAGUCCUCGUAUUUGAGAAGGUUUGAUAAAAG [Mat - Exclusion NG 2 - Mod of JL - D76] (Eterna round: R96, puzzle: Exclusion NG 2) | – | 18.7 nM | 17.5 nM | apparent KD of MS2 coat protein [4]: 13.4 nM
UCCUCACAUGAGGAUCACCCAUGUGAGGAUAUGGGCCCGGGCCCGAAAGGGCCCGGGCCCAGAAGGCACUGGGU [MoB_2] (Eterna round: R97, puzzle: Exclusion 1) | – | 25 nM | 56.1 nM | –
CUAGUAUAUCAGGAUAUGAUUUUGUGUAGUUAAUCAGAAGGGAUGACAUGAGGAUCACCCAUGUUAAGGGAUGA [JR_Ex6_Sub046] (Eterna round: R97, puzzle: Exclusion 6) | – | 324 nM | 83.3 nM | –
AGUGUGUGGCAGGAUAUGCAAUUAAUAGGUGAAGCAGAAGGGUCUACAUGAGGAUCACCCAUGUGUGCGGUUGA [Ex6 #22] (Eterna round: R97, puzzle: Exclusion 6) | – | 154 nM | 139 nM | –
AUAAAUAAGGAGGAUAUCGUAUCGGAAACGAUACGAGAAGGCCUAACAUGAGGAUCACCCAUGUUCCUUAAAUA [Mat - Exclusion 6 - Eli Mod - D62] (puzzle: Exclusion 6) | 24.1 nM | – | – | apparent KD of MS2 coat protein [1]: 40.9 nM; apparent KD of MS2 coat protein [3]: 21.6 nM
GGUUGGCGAGGAUAUACAUGAGGAUCACCCAUGUGAGAGAAACAAGUGAGGAAGAAAAGUAGAAGGCGCUGACG [salish99_ex3_r3_023] (puzzle: Exclusion 3) | 88.1 nM | – | – | apparent KD of MS2 coat protein [1]: 112 nM; apparent KD of MS2 coat protein [3]: 37.1 nM
ACGCCUAUAGUGAGGAUAUUGCGGGUAGGUAUUUGCAAGAAGGCACUUGAGGAUCACCCAAGUGAAGAAGUUGC [Geusra] (Eterna round: R97, puzzle: Brourd's mod of Exclusion 4) | – | 14.7 nM | 15.1 nM | –
